Results taken from patent US20230235058A1 (OXFORD UNIVERSITY INNOVATION, published 2023).
Substitutions are numbered along the chain they refer to. Names may count otherwise.

Tests used:
human FcγR2A 131R [1] = molecular target: T1, human FcγR2A 131R (human, UniProt P12318 34-217); test: SPR 37C, steady state;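 also: fc variants captured on chip-bound human BTLA ectodomain, recombinant FcγR ectodomains injected as analyte at varied concentrations, double-referenced equilibrium binding fitted to Langmuir model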
T1 construct: extracellular domain
T1 sequence (looked up): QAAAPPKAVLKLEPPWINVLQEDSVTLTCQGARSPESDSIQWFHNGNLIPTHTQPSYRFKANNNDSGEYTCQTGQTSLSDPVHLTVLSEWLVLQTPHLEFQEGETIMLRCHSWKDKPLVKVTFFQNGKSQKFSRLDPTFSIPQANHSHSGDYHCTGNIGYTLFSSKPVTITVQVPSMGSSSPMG
Method: (§1) For the low affinity FcγRs (FcγR2A, FcγR2B, FcγR3A and FcγR3B) the interactions were assessed by surface plasmon resonance with the recombinantly expressed FcRs (extracellular domains only) as analyte. Briefly, recombinant human BTLA extracellular domain (BTLA^K31-R151) was covalently immobilised to both flow cells of all channels of a CMS Series S sensor chip using the GE Healthcare Amine coupling kit. The 2.8.6 Fc variant to be assessed was then captured (approx. 500-1000 response units) in flow cell 2 of each channel. Steady state affinity analysis was then performed by injecting varying concentrations of FcR in multiple cycles and measuring equilibrium binding. Double referencing was used (subtracting the signal in the reference Fc1 and also subtracting the signal from a blank zero concentration injection). KDs were calculated from the Langmuir curves (plotting equilibrium binding against analyte concentration to determine the concentration required for half maximal binding).

human FcγR3A 158V [2] = molecular target: T2, human FcγR3A 158V (human, UniProt P08637 17-208); test: SPR 37C, steady state;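 also: fc variants captured on chip-bound human BTLA ectodomain, recombinant FcγR ectodomains injected as analyte at varied concentrations, double-referenced equilibrium binding fitted to Langmuir model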
T2 construct: extracellular domain
Method: as §1

human FcγR2A 131H [3] = molecular target: T3, human FcγR2A 131H (human, UniProt P12318 34-217); test: SPR 37C, steady state;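 also: fc variants captured on chip-bound human BTLA ectodomain, recombinant FcγR ectodomains injected as analyte at varied concentrations, double-referenced equilibrium binding fitted to Langmuir model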
T3 construct: extracellular domain
T3 sequence (looked up): T1 sequence (looked up) with R134H
Method: as §1

human FcγR2B [4] = molecular target: T4, human FcγR2B (human, UniProt P31994 43-217); test: SPR 37C, steady state;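 also: fc variants captured on chip-bound human BTLA ectodomain, recombinant FcγR ectodomains injected as analyte at varied concentrations, double-referenced equilibrium binding fitted to Langmuir model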
T4 construct: extracellular domain; also called hFcγR2B; CD32B
T4 sequence (looked up): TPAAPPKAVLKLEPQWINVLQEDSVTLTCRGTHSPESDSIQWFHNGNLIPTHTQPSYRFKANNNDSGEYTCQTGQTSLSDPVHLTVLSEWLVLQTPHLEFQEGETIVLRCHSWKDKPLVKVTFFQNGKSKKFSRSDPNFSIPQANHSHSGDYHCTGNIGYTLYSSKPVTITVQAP
Method: as §1

human FcγR1A [5] = molecular target: T5, human FcγR1A (human, UniProt P12314 16-288, biotinylated); test: SPR 37C, kinetic; hIgG1 D265A Fc variant
T5 construct: bought; also called CD64A
Method: (§2) For the high affinity FcR interactions (FcγR1A, and also FcRn assessed at pH6.0) the binding was assessed in a kinetic analysis with antibody as analyte. […] Reference flow cell 1 was left empty in all channels. Purified antibody was then injected at a single concentration and on/off rates calculated by curve fitting on BiaEvaluation software.

human FcγR3B [6] = molecular target: T6, human FcγR3B (human, UniProt O75015 17-200, limits assumed); test: SPR 37C, steady state; hIgG1 D265A Fc variant
T6 construct: extracellular domain; also called CD16B
Method: as §1

human FcγR3A 158F [7] = molecular target: T7, human FcγR3A 158F (human, UniProt P08637 17-208); test: SPR 37C, steady state; hIgG1 D265A Fc variant
T7 construct: extracellular domain
Method: as §1

human FcRn = molecular target: T8, human FcRn (human, UniProt P55899 24-297; P61769 21-119, limits assumed, biotinylated); test: SPR, pH6.0
T8 construct: bought; also called FcRn pH6
Method: (§3) For the high affinity FcR interactions (FcγR1A, and also FcRn assessed at pH6.0) the binding was assessed in a kinetic analysis with antibody as analyte. […] Reference flow cell 1 was left empty in all channels. Purified antibody was then injected at a single concentration and on/off rates calculated by curve fitting on BiaEvaluation software. […] IgG Fc has two binding sites for FcRn so this assessment performed with FcRn immobilised at high density provides an avidity estimate for the interaction rather than a true KD.

human FcγR3B [8] = molecular target: T6, human FcγR3B; test: SPR 37C, steady state; hIgG1 D265A A330R Fc variant
Method: as §1

human FcγR3A 158F [9] = molecular target: T7, human FcγR3A 158F; test: SPR 37C, steady state
Method: as §1

human FcγR3B [10] = molecular target: T6, human FcγR3B; test: SPR 37C, steady state
Method: as §1

human FcγR1A [11] = molecular target: T5, human FcγR1A; test: SPR 37C, kinetic
Method: as §2

human FcγR2B [12] = molecular target: T4, human FcγR2B; test: SPR 37C, steady state; hIgG1 D265A G236D Fc variant
Method: as §1

human FcγR2B [13] = molecular target: T4, human FcγR2B; test: SPR 37C, steady state; hIgG1 D265A G236D A330R Fc variant
Method: (§4) For the low affinity FcγRs (FcγR2A, FcγR2B, FcγR3A and FcγR3B) the interactions were assessed by surface plasmon resonance with the recombinantly expressed FcRs (extracellular domains only) as analyte. […] The 2.8.6 Fc variant to be assessed was then captured (approx. 500-1000 response units) in flow cell 2 of each channel. Steady state affinity analysis was then performed by injecting varying concentrations of FcR in multiple cycles and measuring equilibrium binding. Double referencing was used (subtracting the signal in the reference Fc1 and also subtracting the signal from a blank zero concentration injection). KDs were calculated from the Langmuir curves (plotting equilibrium binding against analyte concentration to determine the concentration required for half maximal binding).

human FcγR3A 158V [14] = molecular target: T2, human FcγR3A 158V; test: SPR 37C, steady state; hIgG1 D265A G236D S267E Fc variant
Method: as §4

human FcγR2A 131R [15] = molecular target: T1, human FcγR2A 131R; test: SPR 37C, steady state; hIgG1 D265A P238D Fc variant
Method: as §1

human FcγR2A 131H [16] = molecular target: T3, human FcγR2A 131H; test: as above
Method: as §1

human FcγR2B [17] = molecular target: T4, human FcγR2B; test: as above
Method: as §1

human FcγR1A [18] = molecular target: T5, human FcγR1A; test: SPR 37C, kinetic; hIgG1 D265A S267E Fc variant
Method: as §2

human FcγR1A [19] = molecular target: T5, human FcγR1A; test: SPR 37C, kinetic; hIgG1 K322A Fc variant
Method: as §2

human FcγR3B [20] = molecular target: T6, human FcγR3B; test: SPR 37C, steady state; hIgG1 K322A Fc variant
Method: as §1

human FcγR3A 158F [21] = molecular target: T7, human FcγR3A 158F; test: SPR 37C, steady state; hIgG1 K322A Fc variant
Method: as §1

human FcγR3A 158V [22] = molecular target: T2, human FcγR3A 158V; test: SPR 37C, steady state; hIgG1 K322A Fc variant
Method: as §1

human FcγR2A 131H [23] = molecular target: T3, human FcγR2A 131H; test: SPR 37C, steady state; hIgG1 K322A Fc variant
Method: as §1

human FcγR2B [24] = molecular target: T4, human FcγR2B; test: SPR 37C, steady state; hIgG1 K322A Fc variant
Method: as §1

human FcγR1A [25] = molecular target: T5, human FcγR1A; test: SPR 37C, kinetic; hIgG1 N297A Fc variant
Method: as §3

human FcγR2A 131R [26] = molecular target: T1, human FcγR2A 131R; test: SPR 37C, steady state; hIgG1 N297A Fc variant
Method: as §1

human FcγR2A 131H [27] = molecular target: T3, human FcγR2A 131H; test: SPR 37C, steady state; hIgG1 N297A Fc variant
Method: as §1

human FcγR2B [28] = molecular target: T4, human FcγR2B; test: SPR 37C, steady state; hIgG1 N297A Fc variant
Method: as §1

T2 sequence (P08637 17-208 F176V): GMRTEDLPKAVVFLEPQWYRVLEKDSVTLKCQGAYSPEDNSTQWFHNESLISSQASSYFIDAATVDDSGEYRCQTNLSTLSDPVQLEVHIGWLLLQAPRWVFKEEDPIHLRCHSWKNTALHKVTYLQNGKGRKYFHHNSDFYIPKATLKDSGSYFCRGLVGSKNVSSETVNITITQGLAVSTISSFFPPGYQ
T5 sequence (P12314 16-288): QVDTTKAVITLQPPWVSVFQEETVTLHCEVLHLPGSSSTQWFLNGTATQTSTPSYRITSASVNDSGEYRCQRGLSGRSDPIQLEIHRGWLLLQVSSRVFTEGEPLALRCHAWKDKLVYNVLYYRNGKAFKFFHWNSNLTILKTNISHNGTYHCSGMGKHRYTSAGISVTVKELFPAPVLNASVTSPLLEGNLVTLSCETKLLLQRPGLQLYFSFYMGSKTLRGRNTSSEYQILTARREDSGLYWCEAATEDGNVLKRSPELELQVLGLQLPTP
T6 sequence (O75015 17-200 limits assumed): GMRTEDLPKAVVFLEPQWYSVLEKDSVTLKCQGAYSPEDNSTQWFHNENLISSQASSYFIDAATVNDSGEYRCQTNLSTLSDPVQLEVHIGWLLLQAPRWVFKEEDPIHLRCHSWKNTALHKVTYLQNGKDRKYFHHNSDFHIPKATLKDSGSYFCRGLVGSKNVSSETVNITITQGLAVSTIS
T7 sequence (P08637 17-208): as the sequence (P08637 17-208 F176V) above, with V160F counted along it

B1: humanised 2.8.6 hIgG1 D265A (antibody)
heavy: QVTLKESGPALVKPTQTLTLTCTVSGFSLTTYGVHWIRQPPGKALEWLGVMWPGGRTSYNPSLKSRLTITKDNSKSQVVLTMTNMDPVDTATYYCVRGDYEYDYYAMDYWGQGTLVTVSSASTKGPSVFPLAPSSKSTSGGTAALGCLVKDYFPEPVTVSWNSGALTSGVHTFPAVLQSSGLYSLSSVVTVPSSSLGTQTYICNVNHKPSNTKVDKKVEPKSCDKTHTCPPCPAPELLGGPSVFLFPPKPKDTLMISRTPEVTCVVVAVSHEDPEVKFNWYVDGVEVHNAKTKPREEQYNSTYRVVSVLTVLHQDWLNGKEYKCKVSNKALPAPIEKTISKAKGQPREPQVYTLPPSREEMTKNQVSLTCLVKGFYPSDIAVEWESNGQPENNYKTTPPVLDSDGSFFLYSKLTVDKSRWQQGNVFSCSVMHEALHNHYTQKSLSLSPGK
light: EIVLTQSPATLSLSPGERATLSCRASSSVSYMHWYQQKPGQAPRPLIYATSNRATGIPARFSGSGSGTDYTLTISSLEPEDFAVYYCHQWSSNPYTFGQGTKLEIKRTVAAPSVFIFPPSDEQLKSGTASVVCLLNNFYPREAKVQWKVDNALQSGNSQESVTEQDSKDSTYSLSSTLTLSKADYEKHKVYACEVTHQGLSSPVTKSFNRGEC
notes: Fc variant with the variable domains of humanised 2.8.6; copies: 2 + 2
In the case of B1, the Kd (human FcγR2A 131R [1]) is reported as 48.3 µM, the binding result (human FcγR3A 158V [2]) is reported as “no binding” and the Kd (human FcγR2A 131H [3]) is reported as 40.1 µM. It also gave a Kd (human FcγR2B [4]) of 193 µM, a Kd (human FcγR1A [5]) of 0.497 µM and a Kd (human FcγR3B [6]) of 5200 µM. The Kd (human FcγR3A 158F [7]) was 1490 µM and the “avidity (FcRn pH6)” value (human FcRn) was 12 nM.

B2: humanised 2.8.6 hIgG1 D265A A330R (antibody)
heavy: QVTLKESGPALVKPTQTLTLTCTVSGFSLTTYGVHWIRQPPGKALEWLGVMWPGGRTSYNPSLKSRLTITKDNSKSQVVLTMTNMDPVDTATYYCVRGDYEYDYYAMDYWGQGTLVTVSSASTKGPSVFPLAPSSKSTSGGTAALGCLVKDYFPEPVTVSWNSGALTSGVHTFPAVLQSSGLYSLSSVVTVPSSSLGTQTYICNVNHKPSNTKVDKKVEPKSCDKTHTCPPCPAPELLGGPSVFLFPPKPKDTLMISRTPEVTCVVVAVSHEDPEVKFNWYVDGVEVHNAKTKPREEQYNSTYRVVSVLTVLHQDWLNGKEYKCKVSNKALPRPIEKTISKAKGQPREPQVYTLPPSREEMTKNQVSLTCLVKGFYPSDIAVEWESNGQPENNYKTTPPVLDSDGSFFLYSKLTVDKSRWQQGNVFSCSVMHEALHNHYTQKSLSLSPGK
light: B1 light
notes: as for B1
For B2, the Kd (human FcγR3B [8]) was 9100 µM, the Kd (human FcγR2A 131R [1]) was 67 µM and the binding result (human FcγR3A 158F [9]) was “no binding”. For the same binder, the binding result (human FcγR3A 158V [2]) was “no binding”, the Kd (human FcγR2A 131H [3]) was 39.4 µM and the Kd (human FcγR2B [4]) was 347 µM.

B3: humanised 2.8.6 hIgG1 D265A G236D (antibody)
heavy: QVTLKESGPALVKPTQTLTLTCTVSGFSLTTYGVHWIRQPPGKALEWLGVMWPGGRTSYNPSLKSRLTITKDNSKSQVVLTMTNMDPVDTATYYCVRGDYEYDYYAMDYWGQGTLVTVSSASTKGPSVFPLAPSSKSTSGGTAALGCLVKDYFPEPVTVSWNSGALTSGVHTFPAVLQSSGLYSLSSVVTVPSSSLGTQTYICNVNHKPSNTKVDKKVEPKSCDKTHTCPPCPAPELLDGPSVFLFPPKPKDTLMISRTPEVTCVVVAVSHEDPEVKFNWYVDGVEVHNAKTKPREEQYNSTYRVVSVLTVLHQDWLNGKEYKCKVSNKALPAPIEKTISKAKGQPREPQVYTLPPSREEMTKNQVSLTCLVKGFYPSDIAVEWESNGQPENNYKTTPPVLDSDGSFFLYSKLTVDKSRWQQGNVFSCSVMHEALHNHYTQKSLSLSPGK
light: B1 light
notes: as for B1
With B3 the binding result (human FcγR3B [10]) was “no binding”, the Kd (human FcγR2A 131R [1]) was 91.4 µM and the binding result (human FcγR3A 158F [9]) was “no binding”. B3: no binding (human FcγR3A 158V [2]); no binding (human FcγR2A 131H [3]); no binding (human FcγR1A [11]). The Kd (human FcγR2B [12]) was 748 µM and the “avidity (FcRn pH6)” value (human FcRn) was 14 nM.

B4: humanised 2.8.6 hIgG1 D265A G236D A330R (antibody)
heavy: QVTLKESGPALVKPTQTLTLTCTVSGFSLTTYGVHWIRQPPGKALEWLGVMWPGGRTSYNPSLKSRLTITKDNSKSQVVLTMTNMDPVDTATYYCVRGDYEYDYYAMDYWGQGTLVTVSSASTKGPSVFPLAPSSKSTSGGTAALGCLVKDYFPEPVTVSWNSGALTSGVHTFPAVLQSSGLYSLSSVVTVPSSSLGTQTYICNVNHKPSNTKVDKKVEPKSCDKTHTCPPCPAPELLDGPSVFLFPPKPKDTLMISRTPEVTCVVVAVSHEDPEVKFNWYVDGVEVHNAKTKPREEQYNSTYRVVSVLTVLHQDWLNGKEYKCKVSNKALPRPIEKTISKAKGQPREPQVYTLPPSREEMTKNQVSLTCLVKGFYPSDIAVEWESNGQPENNYKTTPPVLDSDGSFFLYSKLTVDKSRWQQGNVFSCSVMHEALHNHYTQKSLSLSPGK
light: B1 light
notes: as for B1
In the case of B4, the binding result (human FcγR3B [10]) is reported as “no binding”, the Kd (human FcγR2A 131R [1]) is reported as 91.8 µM and the binding result (human FcγR3A 158F [9]) is reported as “no binding”. For the same binder, the binding result (human FcγR3A 158V [2]) was “no binding”, the Kd (human FcγR2A 131H [3]) was 91.3 µM and the Kd (human FcγR2B [13]) was 398 µM. For the same binder, the binding result (human FcγR1A [11]) was “no binding” and the “avidity (FcRn pH6)” value (human FcRn) was 14 nM.

B5: humanised 2.8.6 hIgG1 D265A G236D S267E (antibody)
heavy: B4 heavy with S270E, R333A
light: B1 light
notes: as for B1
For B5, the binding result (human FcγR3B [10]) was “no binding”, the Kd (human FcγR2A 131R [1]) was 61.8 µM and the binding result (human FcγR3A 158F [9]) was “no binding”. For the same binder, the binding result (human FcγR2A 131H [3]) was “no binding”, the Kd (human FcγR2B [4]) was 113 µM and the binding result (human FcγR1A [11]) was “no binding”. For the same binder, the Kd (human FcγR3A 158V [14]) was 1650 µM and the “avidity (FcRn pH6)” value (human FcRn) was 18.7 nM.

B6: humanised 2.8.6 hIgG1 D265A P238D (antibody)
heavy: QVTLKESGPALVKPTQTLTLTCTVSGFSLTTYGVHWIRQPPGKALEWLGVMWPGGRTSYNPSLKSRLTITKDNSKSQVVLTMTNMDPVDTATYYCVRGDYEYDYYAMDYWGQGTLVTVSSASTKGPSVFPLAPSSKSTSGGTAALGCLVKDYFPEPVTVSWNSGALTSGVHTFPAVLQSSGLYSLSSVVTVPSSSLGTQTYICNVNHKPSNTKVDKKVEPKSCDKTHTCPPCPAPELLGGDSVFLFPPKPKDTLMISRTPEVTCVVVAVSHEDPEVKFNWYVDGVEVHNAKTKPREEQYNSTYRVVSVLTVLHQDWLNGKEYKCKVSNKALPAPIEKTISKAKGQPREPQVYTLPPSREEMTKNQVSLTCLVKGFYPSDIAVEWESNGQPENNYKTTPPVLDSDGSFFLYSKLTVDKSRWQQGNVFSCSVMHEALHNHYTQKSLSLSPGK
light: B1 light
notes: as for B1
A Kd (human FcγR2A 131R [15]) of 348 µM, a Kd (human FcγR2A 131H [16]) of 4590 µM and a Kd (human FcγR2B [17]) of 684 µM were found for B6 in this work. B6: no binding (human FcγR3B [10]); no binding (human FcγR3A 158F [9]); no binding (human FcγR3A 158V [2]).

B7: humanised 2.8.6 hIgG1 D265A S267E (antibody)
heavy: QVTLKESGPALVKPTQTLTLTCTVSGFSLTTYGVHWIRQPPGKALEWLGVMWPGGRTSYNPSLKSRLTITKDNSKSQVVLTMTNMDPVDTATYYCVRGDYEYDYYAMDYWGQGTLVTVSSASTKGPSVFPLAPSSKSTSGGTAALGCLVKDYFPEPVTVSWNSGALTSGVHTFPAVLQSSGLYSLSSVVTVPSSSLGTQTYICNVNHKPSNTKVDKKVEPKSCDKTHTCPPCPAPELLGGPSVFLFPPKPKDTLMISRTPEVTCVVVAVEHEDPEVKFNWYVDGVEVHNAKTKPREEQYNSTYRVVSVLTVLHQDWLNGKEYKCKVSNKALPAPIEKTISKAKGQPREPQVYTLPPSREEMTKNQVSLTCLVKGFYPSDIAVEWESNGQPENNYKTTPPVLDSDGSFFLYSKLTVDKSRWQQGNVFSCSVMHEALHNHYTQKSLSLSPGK
light: B1 light
notes: as for B1
For B7, the binding result (human FcγR3B [10]) was “no binding”, the Kd (human FcγR2A 131R [1]) was 26.7 µM and the binding result (human FcγR3A 158F [9]) was “no binding”. The binding result (human FcγR3A 158V [2]) was “no binding”, the Kd (human FcγR2A 131H [3]) was 173 µM and the Kd (human FcγR2B [4]) was 157 µM. The Kd (human FcγR1A [18]) was 0.415 µM and the “avidity (FcRn pH6)” value (human FcRn) was 11.9 nM.

B8: humanised 2.8.6 hIgG1 K322A (antibody)
heavy: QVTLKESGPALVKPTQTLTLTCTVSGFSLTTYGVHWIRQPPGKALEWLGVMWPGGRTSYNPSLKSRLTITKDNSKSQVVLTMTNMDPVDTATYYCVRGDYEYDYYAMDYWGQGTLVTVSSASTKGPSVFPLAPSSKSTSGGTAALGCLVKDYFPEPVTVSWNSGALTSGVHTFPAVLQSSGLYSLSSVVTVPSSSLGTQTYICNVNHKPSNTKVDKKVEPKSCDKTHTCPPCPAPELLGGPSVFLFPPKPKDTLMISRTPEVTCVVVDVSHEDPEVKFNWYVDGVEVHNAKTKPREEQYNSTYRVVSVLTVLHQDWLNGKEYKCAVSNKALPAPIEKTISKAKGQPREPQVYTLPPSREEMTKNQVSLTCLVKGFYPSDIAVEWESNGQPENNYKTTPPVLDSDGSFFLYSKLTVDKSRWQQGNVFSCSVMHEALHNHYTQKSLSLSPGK
light: B1 light
notes: as for B1
A Kd (human FcγR1A [19]) of 0.0052 µM, a Kd (human FcγR3B [20]) of 11.9 µM and a Kd (human FcγR3A 158F [21]) of 5.75 µM were found for B8 in this work. The Kd (human FcγR3A 158V [22]) was 2.18 µM, the Kd (human FcγR2A 131H [23]) was 4.6 µM and the Kd (human FcγR2B [24]) was 11 µM.

B9: humanised 2.8.6 hIgG1 N297A (antibody)
heavy: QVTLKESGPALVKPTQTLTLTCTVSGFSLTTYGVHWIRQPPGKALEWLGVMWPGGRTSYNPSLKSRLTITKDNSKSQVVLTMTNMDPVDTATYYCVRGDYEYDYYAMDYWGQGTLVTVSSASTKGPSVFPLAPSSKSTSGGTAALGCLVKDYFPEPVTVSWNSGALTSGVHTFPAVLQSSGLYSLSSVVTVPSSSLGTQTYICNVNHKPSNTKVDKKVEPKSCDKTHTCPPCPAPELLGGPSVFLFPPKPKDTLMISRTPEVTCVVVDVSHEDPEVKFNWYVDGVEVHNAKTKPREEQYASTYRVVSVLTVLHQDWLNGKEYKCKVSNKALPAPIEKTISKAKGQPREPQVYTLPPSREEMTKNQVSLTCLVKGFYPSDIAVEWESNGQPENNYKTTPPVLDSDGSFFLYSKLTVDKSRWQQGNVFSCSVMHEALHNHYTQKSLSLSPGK
light: B1 light
notes: as for B1
With B9 the Kd (human FcγR1A [25]) was 8.7 µM, the binding result (human FcγR3B [10]) was “no binding” and the binding result (human FcγR3A 158F [9]) was “no binding”. The binding result (human FcγR3A 158V [2]) was “no binding”, the Kd (human FcγR2A 131R [26]) was 447 µM and the Kd (human FcγR2A 131H [27]) was 2150 µM. The Kd (human FcγR2B [28]) was 1080 µM and the “avidity (FcRn pH6)” value (human FcRn) was 9.41 nM.
